Our source for the amyloid nucleation score values is the supplement of paper PMC12042874.

± gives the uncertainty stated by the source.

The nature of the data set: amyloid nucleation score (Sup35N fusion, yeast selection) (log enrichment); library NNK1; higher = more nucleation; inactive = no reads after selection. In outline:
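The nucleation score, computed with DiMSum, is the log enrichment of output over input reads, centred on the mode score of non-aggregating sequences. Sequences with under 100 input reads were dropped. Reads were generated by Illumina sequencing of plasmid inserts from psi-negative yeast with Sup35N fused to peptides of 20 random codons, induced with 100 μM copper sulfate for 24 hours and grown 7 days at 30°C on medium lacking adenine and uracil.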
For the substance DEPAWCSIFAGDIMLKCC, the amyloid nucleation score was 3.57 ± 0.077. On to DETDQNTFTTSIV, for which the amyloid nucleation score came to 1.23 ± 0.28. In turn, DFCVQNFMMLKFKLCYRRSL came in with an amyloid nucleation score of -0.134 ± 1.2. The result for DFILQMLL reads 0.401 ± 0.3; that for DFLFNGLNITRCYFA, 0.193 ± 0.72; that for DFLNWWCRCVTFNSGRSGFV, 0.392 ± 0.6.

In the case of DFLRIRVAKKSLDMGFIV, the amyloid nucleation score is -0.251 ± 0.36.

Substance DFTCIRMNQSFVIRAFGALC had an amyloid nucleation score of 3.75 ± 0.16.

Take DGDVE: the amyloid nucleation score is -0.494 ± 0.74. Turning to DGGNVV, the amyloid nucleation score amounted to 0.452 ± 1.2. As to DGKKYTVMSFSEQSK, the amyloid nucleation score was -0.368 ± 1.7. The result for DGLKGSLCGMGHRLCLKKMN reads 0.131 ± 0.41; that for DGQPLLMGEHYSLGITLM, 1.1 ± 0.81; that for DGRRTDWVLCNGARIRTCYD, -0.316 ± 0.44. The result for DGSLKVELQR reads 1.14 ± 0.49; that for DGTVR, 1.62 ± 0.17; that for DIFHSLILHMDMYEG, 0.811 ± 0.85. The result for DIGAVIAWSNRLVWLQPTLL reads -0.506 ± 0.84; that for DILDSH, -0.824 ± 0.38; that for DINWYTLDAHV, -1.86 ± 1.9. With DISDRGTDIFVSTPGSSMLS, the amyloid nucleation score amounted to 0.503 ± 0.43.

DKGVFAMDKRITMVEFLS: the amyloid nucleation score is -0.87 ± 1.3.

Substance DKLICLMLEAASICYKVQSG returned an amyloid nucleation score of -0.673 ± 0.57.

As for DKLLPHFK, the amyloid nucleation score result was “inactive”. Consider DKNGIPYISCEYNQM, for which the amyloid nucleation score was -0.46 ± 0.72.

Take DKSFDFVLGSEACMVVEVGN: the amyloid nucleation score was -0.496 ± 0.61. Next, DKTKLLLTLRNWLSP: 0.177 ± 0.56; DLADNVRKMGEFTSSVANIL: 0.204 ± 0.4. For the substance DLDSVGTVMGDQGDFS, the amyloid nucleation score was -0.416 ± 0.55.

In turn, DLEPWWACLAKGSSGLISYV displayed an amyloid nucleation score of 0.396 ± 0.38. Substance DLFICSSARAVNKIFRVLHA showed an amyloid nucleation score of 0.511 ± 0.91.

For the substance DLHWILNHTNGACFQWGQPA, the amyloid nucleation score entry was “inactive”. DLIMFD registered an amyloid nucleation score of -0.029 ± 0.73. Next, DLKALCCDRMKVLGFVRSPG: 1.18 ± 0.42; DLNCFAFVWVIIYTRDGWTI: -0.353 ± 0.3; DLSMKRVDKAPCYGNGDYRT: -0.644 ± 0.98. Turning to DLVSTVKDGAECDDKEECSL, the amyloid nucleation score was -0.147 ± 0.26. Next, DMHQRMPVFHGHRATYCC: 0.102 ± 0.56. The result for DMNDYSK reads -0.592 ± 0.39; that for DMNNNIVSKSSFLGDVRVIY, -0.19 ± 1.2.

In turn, DMVVRDQHL gave an amyloid nucleation score of 4.7 ± 0.066.

Substance DNMFDTWLSGATV had an amyloid nucleation score of -0.554 ± 0.66. The substance DNNYSCILAASYLYGLKNYL came in with an amyloid nucleation score of -0.12 ± 0.51. Next, DNRIIWLRGTMS: 0.853 ± 0.92; DNWSMGYPEETGAWGVN: 0.406 ± 0.45. DPARGWPQNVNLFLLSNRR: the amyloid nucleation score was 1.01 ± 0.63. With DPMHYL, the amyloid nucleation score was 4.55 ± 0.098. The result for DPSSLNSGPCLHMAGGCGNQ reads -0.249 ± 1.7. On to DQFLGYMANVAGVVP, for which the amyloid nucleation score was 0.686 ± 0.34. Turning to DRAWTGVWDDESPTT, the amyloid nucleation score is -0.383 ± 1.7. Substance DRITLLRYPWKSIAISIDEG showed an amyloid nucleation score of 0.993 ± 0.36. Next, DRRFFSSV: -1.36 ± 1; DRRRVVNINARQSVNIRFRM: 8.53 ± 0.044. As to DRSTIWSTHNSTYVVYYLVV, the amyloid nucleation score turned out to be 5.18 ± 0.063. The result for DRYYAGF reads 0.464 ± 0.55. Consider DSASGNILYIRKLVI, for which the amyloid nucleation score is 1.84 ± 0.13.

Regarding DSCLEGM, the amyloid nucleation score came out at 1.5 ± 0.66.

As to DSDGFQRVPD, the amyloid nucleation score was -0.736 ± 0.68. Next, DSLIDRSKVLKQTLYSTYWL: -0.12 ± 0.48; DSMYF: 0.367 ± 0.53. In the case of DSRNTDFTCYFEIYYCCVNL, the amyloid nucleation score was found to be 8.069 ± 0.063.

Turning to DSSLCFGSYLWLVAMSLK, the amyloid nucleation score was -0.489 ± 0.75. For DSTILNSLSPVWPRSATGPS, the amyloid nucleation score is -0.529 ± 0.63. Next, DSTLTVKFLMMVRYMVCSVG: 1.71 ± 0.25; DSVVFSWVTYNTSSLSYHCG: 2.41 ± 0.2. The result for DTGLGVCWSAKLGYCVWGSL reads 6.61 ± 0.071; that for DTLGRSLLYYIRYSRVNFPV, “inactive”. The result for DTNKNFSFSKAQ reads -0.081 ± 0.37. As to DTNVVWYYLSWDSPGNGDWK, the amyloid nucleation score entry was “inactive”. As to DTSYGLQRVCKGR, the amyloid nucleation score came to 0.429 ± 0.53. The result for DTVSLWLPARMTNDNFQDLS reads 0.399 ± 0.22; that for DVAPLGCGEPCYGSY, -1.22 ± 1.4.

Turning to DVFHTLIRSRLDFFFYKRER, the amyloid nucleation score turned out to be 0.14 ± 0.4. Substance DVFIGMMLRACNVLHSGWFS registered an amyloid nucleation score of 0.18 ± 0.23. Substance DVGGCHVVTGFERNVKGDLL gave an amyloid nucleation score of 1.44 ± 0.78. Consider DVLVHLP, for which the amyloid nucleation score is -0.917 ± 1.2.

For DVSPLVFVC, the amyloid nucleation score was -0.407 ± 0.74. The result for DVYVSCGYVSQMGPHAEWDG reads 0.102 ± 0.54. The result for DWDSALPSLNFDSETPFYKS reads -0.649 ± 0.48; that for DWLFVGGGR, 0.131 ± 0.56; that for DWMNYVWTVTRIGSYSMVGI, 1 ± 0.68.

Turning to DWPFQYDVKSRLVILLWFVR, the amyloid nucleation score stood at 0.086 ± 1.4. The result for DWQSVRKFLRSVVIRMVSLV reads -0.399 ± 0.24; that for DWRLNLVYKMSA, 0.734 ± 0.75. Next, DWVLTGGRIWK: -0.803 ± 0.54; DWVVSCAYGFSSARNGGVCL: -0.039 ± 0.39; DYFIVGTSVGGDSVTLDNQM: 0.042 ± 0.34. Next, DYGNTVNYSSGEDVHWL: -0.592 ± 1.7. DYLLFSVQGNYESWYNGCKF gave an amyloid nucleation score of -2.05 ± 2.4. The result for DYSCARYEPGNMVLLC reads -0.813 ± 1.5; that for DYTRC, 0.391 ± 0.97.

The substance EAGHSIFNGNWRGID gave an amyloid nucleation score of -0.536 ± 1.2. EAIIEWWFHDSLASHSCTEV yielded an amyloid nucleation score of 0.58 ± 1.2. For the substance EALCSTSEGILHKEWF, the amyloid nucleation score was 0.178 ± 0.28. Turning to ECDSAFRSQGGGLACLFRMK, the amyloid nucleation score was -0.171 ± 0.42. Next, ECIIYPIVMHVFVQNMM: 1.56 ± 0.28; EDALRIFRKETDPDL: 0.681 ± 0.29; EDCIMGNWNLCSKGSSGF: 0.374 ± 0.3. Next, EDHVVYQSADRFLRNCNWEY: 0.266 ± 0.43.

EDLRVTGAKGYGCAECRACV showed an amyloid nucleation score of -0.186 ± 1.9. For the substance EDMWKTCTAV, the amyloid nucleation score is 0.244 ± 0.37. Substance EDSLFRSVLILMSVMFIQVD showed an amyloid nucleation score of 1.05 ± 0.38. Next, EDSSTSLLVGMELKRLTVSF: 0.258 ± 0.35. The result for EDTSMELWVSAGIRGGLPLV reads -1.13 ± 0.94; that for EDTWVLLSHYHFNSMLSLLM, 0.161 ± 0.26; that for EFDTQSCQVDTVAVYIEPSL, 0.793 ± 0.65. Next, EFEPLSFQLVVELMRKFL: 1.52 ± 0.19. Consider EFGFVWVKLCNWGISLLQVN, for which the amyloid nucleation score entry is “inactive”. The result for EFKLDNFQIVGYLLLTRRLI reads 0.222 ± 0.32.

As to EFKLIDLFLLYWLSREHNQF, the amyloid nucleation score was 0.391 ± 0.42.

EFTVPRWTPTGHTSGSLEWV showed an amyloid nucleation score of 0.22 ± 0.41. For EFWGVSLLVFVFCELIGIFC, the amyloid nucleation score was -0.479 ± 0.38. EGACVKSRVWDRINVTGRSR displayed an amyloid nucleation score of 1.25 ± 0.68. Next, EGNMNEWTCLSCRSRAEEAR: -0.255 ± 0.9; EGSIFCMRNCRTIWCSEE: -0.359 ± 0.33. In turn, EGYPTMSMNSRS displayed an amyloid nucleation score of 0.716 ± 0.44.

As to EHGNVACRWDTHISLVWCHF, the amyloid nucleation score is 7.304 ± 0.057. The result for EHTRKGGSCNMLQRQPFCCT reads 0.487 ± 0.52; that for EIASLTRCYRSYRIVSWLRG, 0.341 ± 0.37; that for EIHGCGCPLSKDGGGAFMWA, 1.22 ± 0.63.

The substance EINCHSSMGFMRWPPRSGNG came in with an amyloid nucleation score of -0.962 ± 1. The result for EIQGPVRT reads -0.233 ± 0.59; that for EIRLNYMGFGPKCT, 0.735 ± 0.27; that for EISQNTL, -0.672 ± 0.32.

In the case of EISVKECGGSLDYNANLRDR, the amyloid nucleation score result is “inactive”. In turn, EITVAVSDYGVGSTWSG displayed an amyloid nucleation score of 0.381 ± 0.84. For the substance EITWCF, the amyloid nucleation score was found to be 0.485 ± 0.72. The result for EIWWYKVERAVLTVFREDCL reads “inactive”. The result for EKLSRAVYPRASIRVVCMLF reads -0.204 ± 0.34; that for EKTYSCHECFFIWPRSY, -1.09 ± 0.75. Next, EKVGLTCQRGIVLVDNIFMQ: 6.986 ± 0.045. The substance EKYDGCIFEEKQMIAGAHGM returned an amyloid nucleation score of 1.15 ± 0.88.

For ELFAFCMVPYYTRNMLWLVG, the amyloid nucleation score turned out to be 0.584 ± 0.97.

In turn, ELGLSINFQIANFAACQGYI came in with an amyloid nucleation score of 1.99 ± 0.24.

In the case of ELGTVFGLTYYTMTDYVPMT, the amyloid nucleation score was found to be 0.483 ± 0.22.

Turning to ELGYSTHCIMS, the amyloid nucleation score was -0.735 ± 0.66. ELKQIKVGRSLWRMVRRMGD came in with an amyloid nucleation score of 1.37 ± 0.36.

In turn, ELRCLQVINGLASLSASVWW showed an amyloid nucleation score of 0.067 ± 0.64. ELRYCEFTCSISWA gave an amyloid nucleation score of 0.744 ± 0.36.

ELSMCYYWRKSYIQSLGIRW showed an amyloid nucleation score of 0.733 ± 0.27.
